From patent US6767738B1, “Method of isolating adult mammalian CNS-derived progenitor stem cells using density gradient centrifugation” (The Salk Institute for Biological Studies, priority 1999, dated 2004) come the findings set out here.

Common to all, as to assay type: cell-based, rat
Assay [1] relates to c-fos mRNA (Trk receptor tyrosine kinase signaling). The experiment in a line: RT-PCR analysis of neurotrophin-dependent c-fos induction. Conditions: for induction of c-fos mRNA: proliferating controls treated with neurotrophin. As for the experimental part:
(§1) Cell Culture. For proliferating conditions, clonal stem cells (AP14) were cultured in Dulbecco's Modified Eagles Medium/Ham's F12 (DMEM/F12, 1:1) containing N2 supplement (Gibco BRL, Gaithersburg, Md.) and 20 ng/ml rhFGF-2 (provided by A. Baird, Prizm Pharmaceuticals Inc., La Jolla, Calif.). Culture dishes (Becton Dickinsin Labware, Lincoln Park, N.J.) were coated with polyomithine and mouse laminin as previously described by Ray, et al., Proliferation, differentiation and long-term culture of primary hippocampal neurons, Proc Natl Acad Sci USA 90:3602-3606 (1993). For differentiation experiments, cells were plated into polyornithine/laminin coated glass chamber slides (Nunc, Naperville, Ill.) at a density of 2.5—103 per cm2. The cells were incubated for 24 hrs in normal N2 medium containing 20 ng/ml FGF-2, and then the medium was replaced by N2 medium containing 0.5% […] (FBS) and 0.01% DMSO (control solvent) or […] all-trans retinoic acid (Sigma, St. Louis, Mo.). For further differentiation, the medium was replaced by N2 medium containing 0.5% FBS and one of the following: sterile water (control solvent), mouse 2.55 NGF (50 ng/ml, Boehringer Mannheim, Indianapolis, Ind.), rhBDNF (20 ng/ml, Alomone Labs, Jerusalem, Israel), rhNT-3 (40 ng/ml, Genentech, South San Francisco, Calif.). The medium was replaced every two days. For inhibition of the tyrosine kinase activity of the Trk receptors, K-252a (100 nM, Calbiochem, San Diego, Calif.) was added to the medium.
Reverse Transcription-PCR Analysis. Total RNA from stem cells was isolated using RNeasy Total RNA Kits (Qiagen, Chatsworth, Calif.) according to manufacturer's instructions. Fifty nanograms of total RNA was reverse transcribed using avian myeloblastosis virus reverse transcriptase (Promega, Madison, Wis.) with random hexamers ([…]) as primers in a […] reaction mixture. For PCR amplification, two sets of specific oligonucleotide pairs ([…]) were used: one directed to the transcript of interest, and one for a constitutively expressed transcript, either ribosomal protein L27 or L27a. Reactions were performed in a […] reaction mixture containing 10 mM Tris-Cl (pH 8.4), 50 mm KCl, 1.5 mM MgC12, […] each of the four dNTPs, 2 mCi of [a-32P]dCTP and 5 units of Taq polymerase (Promega) using a thermal cycler (Perkin-Elmer, Foster City, Calif.) with a regimen of 1 min at 94° C., 2 min at 60° C. (55° C. for trk receptors) and 2 min at 72° C. for 23 cycles Fifty microliters of each reaction was analyzed by electrophoresis on 8% polyacrylamide gels followed by autoradiography. […] Under these conditions, the L27 amplification product was directly proportional to the amount of input RNA, up to 50 ng total RNA. Oligonucleotide primers used are as follows: […]
RA treatment also results in neurotrophin-dependent induction of c-fos. Transient and rapid induction of immediate early genes such as c-fos is a well-characterized response to extracellular stimuli in neural cells. c-fos is induced after neurotrophin treatment in cultured […] hippocampal or cortical cells and the signaling cascade following c-fos induction is considered to be integral to subsequent steps in differentiation. To determine whether upregulation of mRNAs for trk receptors and p75NGFR observed in the stem cell cultures results in the acquisition of functional Trk-dependent stimulation of c-fos, mRNA was examined by RT-PCR analysis after stimulating RA-treated cells with neurotrophins. […]

Another assay has as its system ACSC cultures. Nature of the assay: Neuronal transmitter phenotype after RA priming and neurotrophin treatment (GABA, TH, calbindin, AChE). The note with it: neurotrophin after 6 days RA. On the procedure:
as §1
Immunofluorescence. An immunofluorescent staining was performed as previously described (Gage F H, Ray J, Fisher L J (1995a) Isolation, characterization, and use of stem cells from the CNS. Annu Rev Neurosci 18: 159-192. or Gage F H, Coates P W, Palmer T D, Kuhn H G, Fisher L J, Suhonen J O, Peterson D A, Suhr S T, Ray J (1995b) Survival and differentiation of adult neuronal progenitor cells transplanted to the adult brain. Proc Natl Acad Sci USA 92:11879-11883.) Briefly, after fixation with 4% paraformaldehyde in PBS, cells were incubated with primary antibodies overnight at […]. Then the cells were incubated for 1 hr with secondary antibodies (Jackson Immunoresearch) conjugated to fluorescein isothiocyanate, or cyanin-3. Primary antibody concentrations used are as follows (mo=mouse monoclonal, rb=rabbit polyclonal, gp=guinea pig polyclonal): mo a-MAP2abc, 1:5000 (Sigma), mo a-MAP2ab, 1:500 (Sigma), mo a-p75NGFR, 1:10 (192-IgG hybridoma supernatant, a gift from C. E. Chandler, Stanford Univ., Stanford, Calif.), rb a-c-Fos (4),1:4000 (Santa Cruz Biotechnology, Santa Cruz, Calif.), gp a-GFAP, 1:500 (Advanced Immunochemicals, Long Beach, Calif.), rb a-GABA, 1:5000 (Sigma), mo a-TH, 1:500 (Boehringer Mannheim), rb a-calbindin 1:1000 (SWant, Bellinzona, Switzerland). Labeled cells were visualized using confocal scanning laser microscopy (Zeiss Axiovert, Thornwood, N.Y. and Bio-Rad MRC1000, Hemel Hempstead, UK) and color images were generated using Adobe Photoshop (Adobe Systems, Mountain View, Calif.). Both the average percentage and the absolute number +/− SEM of immunofluorescent cells were determined by counting 10 or 50 high power fields (20×) visualized under fluorescence. The total number of cells was counted using nuclear counterstaining with 4′,6diamidino-2-phenylindole (DAPI, Sigma). Statistical analyses were carried out using ANOVA test.
Histochemical Staining for AChE. Cholinergic cells were identified by histochemical staining for AChE by a modification of the staining method of Geneser-Jensen and Blackstadt. Distribution of acetylcholinesterase in the hippocampal region of the guinea pig. I. Entorhinal area parasubiculum, and pre-subiculum, Z Zellforsch 114:460-481(1971). […]

The subject of assay [2] is low-buoyancy cortical cells. Nature of the assay: Acquisition of neuron competence by low-buoyancy cortical cells in culture. The note with it: 10% serum or 5 ng/ml PDGF instead of FGF-2. An excerpt:
Tissue dissection: Three areas were dissected from adult rat brains as follows. Rats (170-190 g Fisher 344 males or females, Harlan) were deeply anesthetized with a mixture of ketamine, xylazine, and acepromazine. Animals were decapitated and whole brains removed. First, ˜1.5 mm of each optic nerve were harvested rostral to, but not including, the optic chiasma. The brain was then bisected longitudinally and each hippocampal lobe separated from the overlaying cortical white matter using the natural separation line along the alveus hippocampus. The white matter of the fimbria and subiculum was removed as much as possible. Some white matter remained. Finally, a 1.5 mm wide cortical ribbon containing parietal and frontal segments was dissected longitudinally, proximal to the central fissure. The pial and callosal surfaces were trimmed from each cortical ribbon to remove a majority of the meninges and white matter.
Tissue dissociation and fractionation: Tissues were finely minced and digested in a solution of papain (2.5 U/ml, Worthington), DNAse (250 U/ml, Worthington), and neutral protease (1 U/ml Dispase, Boehringer) dissolved in Hanks balanced salt solution, as described in Palmer T D, Ray J, Gage F H (1995), FGF-2-Responsive Neuronal Progenitors Reside in Proliferative and Quiescent Regions of the Adult Rodent Brain. Mol Cell Neurosci 6:474-486; and Gage F H, Coates P W, Palmer T D, Kuhn H G, Fisher L J, Suhonen J O, Peterson D A, Suhr S T, Ray J (1995), Survival and differentiation of adult neuronal progenitor cells transplanted to the adult brain. Proc Natl Acad Sci USA 92:11879-11883. Cells and tissue fragments were washed 3 times with Dulbecco's Modified Eagles Medium (DMEM) containing 10% […] bovine serum (defined FBS, Hyclone). Whole digested tissue was then suspended in DMEM 10% FBS, filtered through a sterile 107 μm nylon mesh and thoroughly mixed with an equal volume of PERCOLL™ (polyvinylpyrrolidone-coated silica colloids) solution. The PERCOLL™ (polyvinylpyrrolidone-coated silica colloids) solution was made by mixing 9 parts of PERCOLL™ (polyvinylpyrrolidone-coated silica colloids) (Pharmacia) with 1 part 10X phosphate buffered saline (PBS, Irvine Scientific). The cell suspension was then fractionated by centrifugation for 30 minute, 18°C., at 20,000×g. […]
To determine how rapidly cortical cells acquired the competence to differentiate into neurons in culture, cells were isolated and cultured in growth medium for various times, allowed to differentiate in differentiation medium and then evaluated for the presence of neurons. […] Cultures were also treated with BrdU for the first 10 days and the newly generated neurons were evaluated for evidence of cell division. All neurons scored were labeled (>99%).

For the molecule `COC(=O)[C@@]1(O)C[C@H]2O[C@]1(C)n1c3ccccc3c3c4c(c5c6ccccc6n2c5c31)C(=O)NC4` [K-252a, reference compound], in assay [1] (pretreatment with K-252a (100 nM)), the “c-fos induction by each neurotrophin (NGF, BDNF, NT-3)” value is “blocked”.
In the case of NT-3: Neurotrophin-3, the “induction of c-fos mRNA” value in assay [1] was “slightly increased”. In the assay with ACSC cultures, the “number of AChE-positive cells” value is listed as “small increases over control cultures”, the “number of TH-positive cells” value is recorded as “increased”, the “number of calbindin-positive cells” value is given as “increased” and the “number of neurons expressing GABA” value was “increased”.
Consider PDGF, for which the “neuron formation in control cultures” value in assay [2] is reported as “no neurons were formed”.

B1: NGF: mouse 2.55 NGF, nerve growth factor (protein, UniProt P01139 122-241, looked up)
Beta-nerve growth factor: SSTHPVFHMGEFSVCDSVSVWVGDKTTATDIKGKEVTVLAEVNINNSVFRQYFFETKCRASNPVESGCRGIDSKHWNSYCTTTHTFVKALTTDEKQAAWRFIRIDTACVCVLSRKATRRG
Take B1: the “induction of c-fos mRNA” value in assay [1] is on record as “minimal”. Moreover, in the assay on ACSC cultures, the “number of AChE-positive cells” value is recorded as “small increases over control cultures” and the “number of TH-positive cells” value was “not”.

B2: BDNF: brain-derived neurotrophic factor (protein, UniProt P23560 19-247, looked up)
Neurotrophic factor BDNF …: APMKEANIRGQGGLAYPGVRTHGTLESVNGPKAGSRGLTSLADTFEHVIEELLDEDQKVRPNEENNKDADLYTSRVMLSSQVPLEPPLLFLLEEYKNYLDAANMSMRVRRHSDPARRGELSVCDSISEWVTAADKKTAVDMSGGTVTVLEKVPVSKGQLKQYFYETKCNPMGYTKEGCRGIDKRHWNSQCRTTQSYVRALTMDSKKRIGWRFIRIDTSCVCTLTIKRGR
B2: the “induction of c-fos mRNA” value in assay [1] was “minimal”. Further, in the assay on ACSC cultures, the “number of AChE-positive cells” value was “most effective agent”, the “number of TH-positive cells” value is recorded as “increased”, the “number of calbindin-positive cells” value is reported as “increased” and the “number of neurons expressing GABA” value was “increased”.
